The source of these data is US6747136 (KAROLINA INNOVATIONS, dated 2004).

Experiment [1] deals with T1, tetanus toxoid (UniProt P04958 2-1315).
T1 construct: also called TT
Briefly: ELISA, coated tetanus toxoid 1 ug/ml. For orientation: ELISA stands for enzyme-linked immunosorbent assay.

Experiment [2] concerns the target T1, tetanus toxoid. The experiment can be described thus: ELISA, […] (100 ug/ml) […].

T1 sequence (P04958 2-457 limits assumed, chain 1 of 2): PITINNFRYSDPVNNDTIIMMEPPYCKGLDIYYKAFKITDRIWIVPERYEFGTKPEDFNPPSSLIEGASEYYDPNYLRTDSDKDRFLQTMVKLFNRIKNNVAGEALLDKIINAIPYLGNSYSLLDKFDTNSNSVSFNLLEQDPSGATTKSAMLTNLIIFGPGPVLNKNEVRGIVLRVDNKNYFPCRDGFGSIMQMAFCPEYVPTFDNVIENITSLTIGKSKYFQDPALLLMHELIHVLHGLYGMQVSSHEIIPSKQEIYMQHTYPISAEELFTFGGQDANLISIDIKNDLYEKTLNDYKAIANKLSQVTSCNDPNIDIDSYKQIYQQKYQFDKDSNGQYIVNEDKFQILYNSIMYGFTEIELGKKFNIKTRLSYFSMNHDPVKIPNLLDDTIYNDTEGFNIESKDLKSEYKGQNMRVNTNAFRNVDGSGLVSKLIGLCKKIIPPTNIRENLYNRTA
T1 sequence (P04958 458-1315 limits assumed, chain 2 of 2): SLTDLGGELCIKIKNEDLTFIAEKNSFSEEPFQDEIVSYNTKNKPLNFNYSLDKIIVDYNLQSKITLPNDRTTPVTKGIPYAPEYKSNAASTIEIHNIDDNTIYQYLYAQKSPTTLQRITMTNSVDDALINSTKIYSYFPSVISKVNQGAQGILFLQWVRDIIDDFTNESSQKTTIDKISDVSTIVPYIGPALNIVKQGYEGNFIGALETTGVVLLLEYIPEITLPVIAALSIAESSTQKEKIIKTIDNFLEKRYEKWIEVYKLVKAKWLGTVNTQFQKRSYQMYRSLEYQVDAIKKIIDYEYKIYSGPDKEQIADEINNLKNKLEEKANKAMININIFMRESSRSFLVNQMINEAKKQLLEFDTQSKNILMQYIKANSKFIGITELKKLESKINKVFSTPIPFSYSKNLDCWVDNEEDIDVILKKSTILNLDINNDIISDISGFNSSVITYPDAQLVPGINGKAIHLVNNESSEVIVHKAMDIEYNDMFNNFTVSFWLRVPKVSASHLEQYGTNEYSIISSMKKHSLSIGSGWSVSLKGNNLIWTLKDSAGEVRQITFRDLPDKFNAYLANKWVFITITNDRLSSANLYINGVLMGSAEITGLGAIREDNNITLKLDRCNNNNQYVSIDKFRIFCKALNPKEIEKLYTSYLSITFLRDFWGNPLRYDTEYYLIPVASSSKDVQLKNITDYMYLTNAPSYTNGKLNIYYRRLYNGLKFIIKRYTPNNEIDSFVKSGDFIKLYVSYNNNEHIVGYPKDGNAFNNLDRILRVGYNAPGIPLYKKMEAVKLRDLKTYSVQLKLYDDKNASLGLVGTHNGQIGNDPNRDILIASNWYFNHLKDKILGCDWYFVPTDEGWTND

B1: Fab molecule clone 1:5 (Fab, V domains shown)
VH: VQLLEQSGAEVRKPGSSVKVSCKASGGTFSGHVITWVRQAPGQGLEWMGESIPIFGSANYAQNYAQKFRDRVSIIADESTSTSFIELSNLRSDDTAVYYCARDPPRYCSAGRCYPGFFQQWGQGTLVTVSS
VL: AELTQSPGTLSLSPGERATLSCRASQSVSSNYLAWYQQRPGQAPRLLIYGASSRATGIPDRFSGSGSGTDFTLTISRLEPEDFAVYYCQLYGNSRWTFGQGTKVEIK
For the molecule B1, the binding result with tetanus toxoid [1] was “no binding”.

B2: Fab molecule clone L3 (Fab, V domains shown)
VH: EVQLLESGGGVVQPGRSLRLSCAASGFTFKTYGMHWVRQAPGKGLEWVAGISFDGSNQYYADSVKGRFIVSRDNSRDTVFLQMSSLRLEDTAVYYCATEGSPFGSIKGRYYLENWGQGTLVTVSS
VL: AELTQSPATLSVSPGERASLSCRASQSVGNNLAWYQQKPGQAPRLLIYGGNTRATGTPDRFSGSGSGTEFTLTISSLQSEDFAVYFCQHYSTWPLTFGGGTKVEFK
Take B2: the binding result in the experiment with tetanus toxoid [1] is listed as “no binding”. The “OD405 nm (ELISA reactivity)” value with tetanus toxoid [2] was found to be 0.313 OD405 nm.
